Assay results: patent US20250179173A1 (IMMUNE ONC THERAPEUTICS, published 2025)

Key:
human LILRB4 [1] = molecular target: T1, human LILRB4 (human, UniProt Q8NHJ6 22-259, limits assumed); test: blocking of Fibronectin binding to LILRB4; method not stated in the example
T1 construct: also called ILT3; LIR5

human LILRB4 [2] = molecular target: T1, human LILRB4; test: blocking of APOE binding to LILRB4; method not stated in the example
human LILRB4 [3] = molecular target: T1, human LILRB4; test: 'Affinity to human LILRB4'; method not stated in the example

B1: anti-LILRB4 antibody H7K3m5 (antibody, IgG1, V domains shown)
VH: EVQLVESGGGLVQPGGSLRLSCAASGFSLSSSYWISWVRQAPGKGLEWIGSIDSGSVGITYYATWVKGRFTISRDNSKNTLYLQMNSLRAEDTAVYYCARHGDNWALDLWGQGTLVTVSS
VL: DIQMTQSPSTLSASVGDRVTITCRASQSISSWLAWYQQKPGKAPKLLIYKASTLASGVPSRFSGSGSGTEFTLTISSLQPDDFATYYCQHGYIRGDLDNVFGGGTKVEIK
IC50 (human LILRB4 [1]): 0.78 nM | IC50 (human LILRB4 [2]): 0.18 nM | Kd (human LILRB4 [3]): 0.5 nM
